In paper PMC7991746:

What was measured:
[1] = target: DUSP3-C124S mutant (phosphatase dead) (UniProt P51452); assay: SPR; Biacore T100; DUSP3-WT or DUSP3-C124S immobilised on CM5 sensorchip (200 RU); protein analytes 12.5-1,000 nM; kinetic assays at 25°C, HBS-EP buffer, 10 μl/min, 120 s association, 300 s dissociation; three independent experiments
[2] = target: DUSP3-WT (dual-specificity phosphatase 3) (UniProt P51452); assay: as above
[3] = target: dual-specificity phosphatase 3 (DUSP3), wild type (UniProt P51452); assay: SPR; Biacore T100; DUSP3-WT or DUSP3-C124S immobilised on CM5 sensorchip (200 RU); analytes 12.5 to 1,000 nM; 25°C; HBS-EP buffer; association 120 s, dissociation 300 s, 10 μl/min
Chain of dual-specificity phosphatase 3 (DUSP3), wild type (P51452 whole entry): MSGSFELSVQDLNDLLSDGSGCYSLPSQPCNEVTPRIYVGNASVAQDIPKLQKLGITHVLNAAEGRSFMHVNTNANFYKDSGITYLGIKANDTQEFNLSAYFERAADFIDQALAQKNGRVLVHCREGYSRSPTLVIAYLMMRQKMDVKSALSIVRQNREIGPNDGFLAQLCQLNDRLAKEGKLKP

Chain of DUSP3-C124S mutant (phosphatase dead) (P51452 whole entry C124S): as the sequence (P51452 whole entry) above, with C124S counted along it
Chain of DUSP3-WT (dual-specificity phosphatase 3) (P51452 whole entry): as the sequence (P51452 whole entry) above

Kd [1] | Kd [2] | fold higher affinity than ERK1 [3] | fold higher affinity than NPM 9-122 [3] | Substance
393 nM | 294 nM |  |  | truncated N-terminal of NPM 9-122 (domain or fragment)
11.5 nM | 17.2 nM |  |  | NPM full length (nucleophosmin) (natural protein)
 |  | 10 fold | 17 fold | nucleophosmin (NPM) full length (natural protein)
